Data reported in patent US20240376556, “BIOSENSORS FOR DETECTING AND/OR NEUTRALIZING BIOAVAILABLE URANIUM AND RELATED U-SENSITIVE GENETIC MOLECULAR COMPONENTS, GENE CASSETTES, VECTORS, GENETIC CIRCUITS, COMPOSITIONS, METHODS AND SYSTEMS” (LAWRENCE LIVERMORE NATIONAL SECURITY, LLC, published 2024).

Biological target: T1, UrpR (CCNA_01362), native in cells (Caulobacter crescentus NA1000)
T1 chain: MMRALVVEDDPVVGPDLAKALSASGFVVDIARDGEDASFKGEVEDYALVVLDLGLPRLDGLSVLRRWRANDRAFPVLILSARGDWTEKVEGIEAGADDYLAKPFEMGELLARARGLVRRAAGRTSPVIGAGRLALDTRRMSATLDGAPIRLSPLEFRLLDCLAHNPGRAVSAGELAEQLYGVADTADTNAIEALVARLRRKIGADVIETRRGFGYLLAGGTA
Assay: cell_activity; P1361-gfp induction in wild type with 20 uM U; U induction abolished by CCNA_01362 deletion

B1: P1361 promoter (dsDNA)
DNA 1: GAACGATAGCGCCGCCTGCGAGCGCGACCTCAGGCCTCGGACGAAGCGCGTCCGGGGCCTTTTCTTGTCGATGTTCAGCGCCTGGTTACCGGCGATGGCGCGGTGTCAGCGTTCGGGCGTTGCGATGCGTCAGGAGCGTGTCAGGATGCCTGTGGAATCCTAAGCGCCATCACCCAGTCCCGATCTTTCC
DNA 2: GGAAAGATCGGGACTGGGTGATGGCGCTTAGGATTCCACAGGCATCCTGACACGCTCCTGACGCATCGCAACGCCCGAACGCTGACACCGCGCCATCGCCGGTAACCAGGCGCTGAACATCGACAAGAAAAGGCCCCGGACGCGCTTCGTCCGAGGCCTGAGGTCGCGCTCGCAGGCGGCGCTATCGTTC
In the case of B1, the activity is reported as 10.5 fold.
